According to patent publication US9314499:

Target: T1, Histidine-tagged recombinant human Annexin A2
T1 chain: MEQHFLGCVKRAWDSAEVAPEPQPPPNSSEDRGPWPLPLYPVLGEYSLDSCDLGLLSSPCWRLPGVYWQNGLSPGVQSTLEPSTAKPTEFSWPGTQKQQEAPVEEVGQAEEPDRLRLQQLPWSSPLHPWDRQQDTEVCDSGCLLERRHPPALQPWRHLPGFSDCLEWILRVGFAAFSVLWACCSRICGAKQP

B1: tissue plasminogen activator (protein)
chain: SYQVICRDEKTQMIYQQHQSWLRPVLRSNRVEYCWCNSGRAQCHSVPVKSCSEPRCFNGGTCQQALYFSDFVCQCPEGFAGKCCEIDTRATCYEDQGISYRGTWSTAESGAECTNWNSSALAQKPYSGRRPDAIRLGLGNHNYCRNPDRDSKPWCYVFKAGKYSSEFCSTPACSEGNSDCYFGNGSAYRGTHSLTESGASCLPWNSMILIGKVYTAQNPSAQALGLGKHNYCRNPDGDAKPWCHVLKNRRLTWEYCDVPSCSTCGLRQYSQPQFRIKGGLFADIASHPWQAAIFAKHRRSPGERFLCGGILISSCWILSAAHCFQERFPPHHLTVILGRTYRVVPGEEEQKFEVEKYIVHKEFDDDTYDNDIALLQLKSDSSRCAQESSVVRTVCLPPADLQLPDWTECELSGYGKHEALSPFYSERLKEAHVRLYPSSRCTSQHLLNRTVTDNMLCAGDTRSGGPQANLHDACQGDSGGPLVCLNDGRMTLVGIISWGLGCGQKDVPGVYTKVTNYLDWIRDNMRP
- tPA-converted plasmin generation (in vitro plasmin activity assay, fluorogenic substrate D-Val-Leu-Lys-AMC): a combination of rA2 (5 µg/ml) and tPA (2.5 µg/ml) significantly amplified tPA-converted plasmin generation
